The values below come from paper PMC11070302 (Drug resistance updates : reviews and commentaries in …, 2024).

What is called stoichiometry N is the number of molecules, sites or subunits per partner or assembly.

The series deals with the molecule itself. Kind of series: non-reducing SDS-PAGE and protein staining.

B1: PEPD^G278D, a recombinant and enzymatically inactive mutant of human peptidase D (enzyme, UniProt P12955 1-493, looked up)
chain: MAAATGPSFWLGNETLKVPLALFALNRQRLCERLRKNPAVQAGSIVVLQGGEETQRYCTDTGVLFRQESFFHWAFGVTEPGCYGVIDVDTGKSTLFVPRLPASHATWMGKIHSKEHFKEKYAVDDVQYVDEIASVLTSQKPSVLLTLRGVNTDSGSVCREASFDGISKFEVNNTILHPEIVECRVFKTDMELEVLRYTNKISSEAHREVMKAVKVGMKEYELESLFEHYCYSRGGMRHSSYTCICGSGENSAVLHYGHAGAPNDRTIQNGDMCLFDMDGEYYCFASDITCSFPANGKFTADQKAVYEAVLRSSRAVMGAMKPGVWWPDMHRLADRIHLEELAHMGILSGSVDAMVQAHLGAVFMPHGLGHFLGIDVHDVGGYPEGVERIDEPGLRSLRTARHLQPGMVLTVEPGIYFIDHLLDEALADPARASFLNREVLQRFRGFGGVRIEEDVVVTDSGIELLTCVPRTVEEIEACMAGCDKAFTPFSGPK
Turning to B1, the “stoichiometry N” value worked out at 2.
